# Source: publication PMC12328215, “Interactions between TTYH2 and APOE facilitate endosomal lipid transfer” (Nature, 2025)
# B1: sybody Sb2^TTYH2 (VHH)
# VHH: QVQLVESGGGLVQAGGSLRLSCAASGFPVTNDSMHWYRQAPGKEREWVAAIASQGRGTAYADSVKGRFTISRDNAKSTVYLQMNSLKPEDTAVYYCNVKDYGYDLQWYDYWGQGTQVTVS
# notes: synthetic nanobody from the loop library (medium CDR3); For force spectroscopy immobilised on glass by the protocol used for APOE, or added soluble at 20–50 µM; also called Syb2; unlabelled Sb2; source: E. coli MC1061, periplasmic expression, purified (Ni-NTA, SEC)
# B2: sybody Sb1^TTYH2 (VHH)
# VHH: QVQLVESGGGLVQAGGSLRLSCTASGFPVAFAQMKWYRQAPGKEREWVAAIWSMGNETTYADSVKGRFTISRDNAKNTVYLQMNSLKPEDTAVYYCAVEVGYGYHGQGTQVTVS
# notes: synthetic nanobody from the concave library (short CDR3); also called Syb1; source: E. coli MC1061, periplasmic expression, purified (Ni-NTA, SEC)
# Target: T1, human TTYH3 (Tweety homologue 3), detergent-solubilized and purified (human, UniProt Q9C0H2)
# T1 construct: Tweety homologue 3 (TTYH3), human; gene (Genscript) cloned into the vector pcDXC3MS; Homodimer; source: HEK293 GNTI− cells, transiently transfected, purified in GDN (Strep-Tactin, SEC)
# T1 sequence (Q9C0H2 2-523): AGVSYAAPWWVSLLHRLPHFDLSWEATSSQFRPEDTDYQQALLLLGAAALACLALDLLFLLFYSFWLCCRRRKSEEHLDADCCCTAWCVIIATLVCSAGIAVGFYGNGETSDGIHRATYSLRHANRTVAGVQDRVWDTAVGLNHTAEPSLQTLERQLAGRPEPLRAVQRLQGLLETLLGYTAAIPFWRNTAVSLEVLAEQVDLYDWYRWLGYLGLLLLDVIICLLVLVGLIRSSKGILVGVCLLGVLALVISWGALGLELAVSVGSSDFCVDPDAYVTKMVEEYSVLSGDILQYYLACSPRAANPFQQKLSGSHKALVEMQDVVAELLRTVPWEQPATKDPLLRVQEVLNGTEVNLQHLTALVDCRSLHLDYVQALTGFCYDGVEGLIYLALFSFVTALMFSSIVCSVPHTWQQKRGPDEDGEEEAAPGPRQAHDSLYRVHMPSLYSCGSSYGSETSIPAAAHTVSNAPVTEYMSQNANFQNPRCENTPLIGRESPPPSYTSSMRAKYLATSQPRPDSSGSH
# Test: SEC; TTYH2 or TTYH3 with a 1.6 molar excess of sybody on a Superose 6 Increase 5/150 GL column; sybody in the TTYH peak fractions detected by SDS–PAGE
# Conditions: both partners purified
row,Binder,binding result
1,B1,no binding
2,B2,no binding
